Results: article PMC5116745, “Importance of the C-terminal histidine residues of Helicobacter pylori GroES for Toll-like receptor 4 binding and interleukin-8 cytokine production” (Scientific Reports, 2016)

Columns and labels:
[1] = target: recombinant human TLR4 protein (human) (UniProt O00206); experiment: SPR; Biacore T200; TLR4 immobilised on CM5 chip (6000 RU); HpGroES proteins flowed at 7.8125-1000 nM, 30 μl/min, 25 °C; PBS with 0.05% P20; Kd from saturation curves (GraphPad Prism)
[2] = target: T1, recombinant human TLR4 protein (human, UniProt O00206 24-631); experiment: as above; conditions: both partners purified
T1 construct: Toll-like receptor 4, human, recombinant protein from R&D Systems; R&D Systems' recombinant human TLR4 is, as far as recalled, the extracellular domain with a His tag (some products are a complex with MD-2); also called Toll-like receptor 4; source: bought: R&D Systems
T1 sequence (O00206 24-631): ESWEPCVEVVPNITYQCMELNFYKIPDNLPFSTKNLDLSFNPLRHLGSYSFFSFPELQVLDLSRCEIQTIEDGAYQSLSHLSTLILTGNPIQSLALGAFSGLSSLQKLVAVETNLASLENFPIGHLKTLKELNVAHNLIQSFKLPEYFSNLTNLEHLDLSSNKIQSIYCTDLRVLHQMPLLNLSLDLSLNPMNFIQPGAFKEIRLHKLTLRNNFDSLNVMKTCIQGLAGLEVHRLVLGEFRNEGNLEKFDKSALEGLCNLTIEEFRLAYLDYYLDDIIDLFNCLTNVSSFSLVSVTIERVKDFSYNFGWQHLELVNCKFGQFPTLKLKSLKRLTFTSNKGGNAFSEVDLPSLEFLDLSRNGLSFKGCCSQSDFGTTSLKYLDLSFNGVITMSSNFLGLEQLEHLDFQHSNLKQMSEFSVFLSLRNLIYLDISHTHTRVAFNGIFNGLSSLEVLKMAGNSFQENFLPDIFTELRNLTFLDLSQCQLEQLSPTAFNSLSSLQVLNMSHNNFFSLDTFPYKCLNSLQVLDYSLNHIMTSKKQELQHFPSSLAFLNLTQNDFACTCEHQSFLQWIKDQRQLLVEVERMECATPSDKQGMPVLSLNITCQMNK

[3] = target: the molecule itself; experiment: SEC; HiLoad 16/600 Superdex 200 pg; 150 mM NaCl, 25 mM potassium phosphate pH 7.4, 1 mM DTT, 0.3% glycerol; 2 ml/min

Sequence of recombinant human TLR4 protein (human) (O00206 24-631): as above

Molecule	Kd [1] [nM]	Kd [2] [nM]	stoichiometry N [3]
HpGroES H100A mutant (from UniProt P0A0R3 1-118) (natural protein)	> 1000		
Helicobacter pylori GroES (HpGroES), wild type (natural protein, GroES (HspA) of Helicobacter pylori; domain A plus C-terminal domain B (residues 91-118); Protein was dialysed with 4 molar equivalents of NiSO4 before size exclusion (nickel-loaded); also called WT; heat shock protein (HSP) A; source: E. coli M15 (pQE30), purified (Ni2+-chelating Sepharose, Superdex 200 size exclusion)) MKFQPLGERVLVERLEEENKTSSGIIIPDNAKEKPLMGVVKAVSHKISEGCKCVKEGDVIAFGKYKGAEIVLDGTEYMVLELEDILGIVGSGSCCHTGNHDHKHAKEHEACCHDHKKH		100	7
HpGroES H96A mutant (natural protein, Helicobacter pylori, UniProt P0A0R3 1-118, looked up, GroES (HspA) of Helicobacter pylori with a point mutation in domain B; Same construct as m1 with the mutation; nickel-loaded during purification; source: E. coli M15 (pQE30), purified (Ni2+-chelating Sepharose, Superdex 200 size exclusion)) MKFQPLGERVLVERLEEENKTSSGIIIPDNAKEKPLMGVVKAVSHKISEGCKCVKEGDVIAFGKYKGAEIVLDGTEYMVLELEDILGIVGSGSCCATGNHDHKHAKEHEACCHDHKKH		110	7
HpGroES H100A mutant (natural protein, Helicobacter pylori, UniProt P0A0R3 1-118, looked up, GroES (HspA) of Helicobacter pylori with a point mutation in domain B; Same construct as m1 with the mutation; nickel-loaded during purification; source: E. coli M15 (pQE30), purified (Ni2+-chelating Sepharose, Superdex 200 size exclusion)) MKFQPLGERVLVERLEEENKTSSGIIIPDNAKEKPLMGVVKAVSHKISEGCKCVKEGDVIAFGKYKGAEIVLDGTEYMVLELEDILGIVGSGSCCHTGNADHKHAKEHEACCHDHKKH			7
HpGroES H102A mutant (natural protein, Helicobacter pylori, UniProt P0A0R3 1-118, looked up, GroES (HspA) of Helicobacter pylori with a point mutation in domain B; Same construct as m1 with the mutation; nickel-loaded during purification; source: E. coli M15 (pQE30), purified (Ni2+-chelating Sepharose, Superdex 200 size exclusion)) MKFQPLGERVLVERLEEENKTSSGIIIPDNAKEKPLMGVVKAVSHKISEGCKCVKEGDVIAFGKYKGAEIVLDGTEYMVLELEDILGIVGSGSCCHTGNHDAKHAKEHEACCHDHKKH		> 1000	7
HpGroES H104A mutant (natural protein, Helicobacter pylori, UniProt P0A0R3 1-118, looked up, GroES (HspA) of Helicobacter pylori with a point mutation in domain B; Same construct as m1 with the mutation; nickel-loaded during purification; source: E. coli M15 (pQE30), purified (Ni2+-chelating Sepharose, Superdex 200 size exclusion)) MKFQPLGERVLVERLEEENKTSSGIIIPDNAKEKPLMGVVKAVSHKISEGCKCVKEGDVIAFGKYKGAEIVLDGTEYMVLELEDILGIVGSGSCCHTGNHDHKAAKEHEACCHDHKKH		100	7
HpGroES H108A mutant (natural protein, Helicobacter pylori, UniProt P0A0R3 1-118, looked up, GroES (HspA) of Helicobacter pylori with a point mutation in domain B; Same construct as m1 with the mutation; nickel-loaded during purification; source: E. coli M15 (pQE30), purified (Ni2+-chelating Sepharose, Superdex 200 size exclusion)) MKFQPLGERVLVERLEEENKTSSGIIIPDNAKEKPLMGVVKAVSHKISEGCKCVKEGDVIAFGKYKGAEIVLDGTEYMVLELEDILGIVGSGSCCHTGNHDHKHAKEAEACCHDHKKH		> 1000	7
HpGroES H113A mutant (natural protein, Helicobacter pylori, UniProt P0A0R3 1-118, looked up, GroES (HspA) of Helicobacter pylori with a point mutation in domain B; Same construct as m1 with the mutation; nickel-loaded during purification; source: E. coli M15 (pQE30), purified (Ni2+-chelating Sepharose, Superdex 200 size exclusion)) MKFQPLGERVLVERLEEENKTSSGIIIPDNAKEKPLMGVVKAVSHKISEGCKCVKEGDVIAFGKYKGAEIVLDGTEYMVLELEDILGIVGSGSCCHTGNHDHKHAKEHEACCADHKKH		> 1000	7
HpGroES H115A mutant (natural protein, Helicobacter pylori, UniProt P0A0R3 1-118, looked up, GroES (HspA) of Helicobacter pylori with a point mutation in domain B; Same construct as m1 with the mutation; nickel-loaded during purification; source: E. coli M15 (pQE30), purified (Ni2+-chelating Sepharose, Superdex 200 size exclusion)) MKFQPLGERVLVERLEEENKTSSGIIIPDNAKEKPLMGVVKAVSHKISEGCKCVKEGDVIAFGKYKGAEIVLDGTEYMVLELEDILGIVGSGSCCHTGNHDHKHAKEHEACCHDAKKH		150	7
HpGroES H118A mutant (natural protein, Helicobacter pylori, UniProt P0A0R3 1-118, looked up, GroES (HspA) of Helicobacter pylori with a point mutation in domain B; Same construct as m1 with the mutation; nickel-loaded during purification; source: E. coli M15 (pQE30), purified (Ni2+-chelating Sepharose, Superdex 200 size exclusion)) MKFQPLGERVLVERLEEENKTSSGIIIPDNAKEKPLMGVVKAVSHKISEGCKCVKEGDVIAFGKYKGAEIVLDGTEYMVLELEDILGIVGSGSCCHTGNHDHKHAKEHEACCHDHKKA		> 1000	7
